Data reported in the supplement of paper PMC10724198.
± gives the standard deviation of the averaged measurements.

Test system: Saccharomyces cerevisiae
Test: protein stability index of tFT-peptide fusion (C-terminal peptide) (PSI (0-1 scale)); higher = more stable (slower turnover)
Settings: genetic background: wild type; temperature: 30 C
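Also: PSI is a weighted mean of sequencing reads over stability bins, variants kept only with over 10 reads, mCherry proximal and sfGFP distal, peptide attached via GGGS linker.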

Sequence	protein stability index
PLTVPLPLALSP	0.684 ± 0.047
PNHLDPPTLHVN	0.714 ± 0.021
PNKRLKERGDPS	0.695 ± 0.086
PNSSLLNLPRPP	0.744 ± 0.041
PPAAHPFAPFPS	0.71 ± 0.014
PPACPYPFRPLP	0.668 ± 0.025
PPACSPSPPRSS	0.723 ± 0.028
PPAHIFHPPPAR	0.699 ± 0.081
PPALHRPFPPPP	0.666 ± 0.016
PPALLAPAAPLP	0.652 ± 0.07
PPALPRFPACTT	0.714 ± 0.056
PPALSSNPVIPG	0.626 ± 0.099
PPAPAPPAPPPL	0.649 ± 0.027
PPAPLPAPRLAL	0.709 ± 0.036
PPAPPHPPPLSP	0.695 ± 0.04
PPAPPPASPGLV	0.7017 ± 0.0009
PPAPPPCTPPPP	0.69493 ± 0.0002
PPATLIWAWFFR	0.67 ± 0.022
PPATPPRPPLPS	0.675 ± 0.057
PPATRSLSAASP	0.722 ± 0.0095
PPCAPPPSPLAC	0.684 ± 0.043
PPCHPPPTTSEK	0.677 ± 0.032
PPDTPRTQKADT	0.755 ± 0.029
PPELHTIRARQI	0.58 ± 0.082
PPFASSPPFIFL	0.705 ± 0.062
PPFLTTYPHLAP	0.71 ± 0.031

Sequence	protein stability index
PPFPLSPLPPPL	0.71 ± 0.0047
PPFPPLPSPFTS	0.708 ± 0.018
PPFRSPPRHDPL	0.662 ± 0.015
PPGLPPIRCPPT	0.631 ± 0.037
PPGPPRPPPRTP	0.689 ± 0.0036
PPGSPPSLPPLP	0.711 ± 0.057
PPHASRAPPFPR	0.671 ± 0.047
PPHLPPSLSVLP	0.663 ± 0.057
PPHPLLSPPPFP	0.821 ± 0.088
PPHPPPPATPCP	0.682 ± 0.013
PPHPPPPFPPPP	0.744 ± 0.015
PPHPPPTTVHLA	0.7052 ± 0.002
PPHPSTPIPPPR	0.672 ± 0.012
PPHPTPRTLPSP	0.691 ± 0.0027
PPHSHRSRHPPP	0.688 ± 0.061
PPHTLTSTIRPN	0.73 ± 0.019
PPILRPAKSAQG	0.705 ± 0.024
PPIPPPPPLPPP	0.621 ± 0.023
PPIPSLPPASFP	0.69 ± 0.044
PPLGPRALPSPA	0.67 ± 0.038
PPLGPRARPPPR	0.734 ± 0.024
PPLLPPPSPPPP	0.684 ± 0.04
PPLPLPPPLLPP	0.659 ± 0.059
PPLPPAPLPLPT	0.639 ± 0.051
PPLPPLLFRSPP	0.687 ± 0.017
PPLPPLPVPPTL	0.738 ± 0.11

Sequence	protein stability index
PPLPPPAPSFPT	0.684 ± 0.06
PPLPPPQDPRLP	0.7 ± 0.097
PPLPPPRYLPPT	0.7124 ± 0.0027
PPLPPSPLPLPP	0.664 ± 0.023
PPLPPSPPFPPP	0.653 ± 0.015
PPLPSAPSTYPA	0.634 ± 0.012
PPLPSMVLQRIY	0.589 ± 0.0065
PPLQFFLYRSWV	0.664 ± 0.044
PPLRPAPPPPLS	0.7 ± 0.12
PPLSAPPPSPSP	0.702 ± 0.065
PPLSGNLPCFRF	0.713 ± 0.03
PPLSPPLPPPPS	0.7188 ± 0.0062
PPLSPPPPPPVP	0.688 ± 0.066
PPLTHPPPPLYL	0.694 ± 0.008
PPMALPELPLFP	0.738 ± 0.071
PPNLLPRPPPRG	0.559 ± 0.047
PPPALPPPPFPP	0.591 ± 0.011
PPPALPPPPRPP	0.604 ± 0.065
PPPAPPPLAPPL	0.713 ± 0.0086
PPPAPPPPPSSR	0.667 ± 0.007
PPPAPQTATPHR	0.714 ± 0.022
PPPCPPPPLSRP	0.666 ± 0.058
PPPCRPSQFPPL	0.742 ± 0.015
PPPCSFTRKRQR	0.664 ± 0.014
PPPDKTPERRPC	0.644 ± 0.054
PPPFPPPPARSL	0.474 ± 0.043

Sequence	protein stability index
PPPFRFPALLPP	0.6778 ± 0.0007
PPPFSPLPLPPS	0.71 ± 0.044
PPPGPPLPPGLP	0.749 ± 0.033
PPPGSPLRPSRL	0.748 ± 0.12
PPPHLPPPPPTQ	0.658 ± 0.059
PPPHPALPHPLH	0.682 ± 0.01
PPPHTRVIPSSP	0.6763 ± 0.0052
PPPLCLHAPFPP	0.626 ± 0.045
PPPLDSPPPPPP	0.664 ± 0.019
PPPLLPVPQPLF	0.672 ± 0.087
PPPLLSPLSPPP	0.571
PPPLPAAHFSTP	0.663 ± 0.022
PPPLPPPPHGVP	0.6889 ± 0.0066
PPPLPPPPPTRP	0.616 ± 0.063
PPPLPPSPPHHP	0.689 ± 0.04
PPPLPRPRSTAL	0.674 ± 0.043
PPPLTVPLLSPP	0.662 ± 0.046
PPPLVPPPPSSL	0.731 ± 0.011
PPPNPPATTTTP	0.6685 ± 0.0012
PPPPALLPPPPA	0.781 ± 0.27
PPPPAPPLPPPP	0.707 ± 0.039
PPPPFWPLSPAL	0.713 ± 0.039
PPPPGCLPRPAS	0.699 ± 0.021
